T1: EsCas13d, nuclease-dead (Eubacterium siraeum, UniProt B0MS50, R295A;H300A;R849A;H854A)
T1 sequence: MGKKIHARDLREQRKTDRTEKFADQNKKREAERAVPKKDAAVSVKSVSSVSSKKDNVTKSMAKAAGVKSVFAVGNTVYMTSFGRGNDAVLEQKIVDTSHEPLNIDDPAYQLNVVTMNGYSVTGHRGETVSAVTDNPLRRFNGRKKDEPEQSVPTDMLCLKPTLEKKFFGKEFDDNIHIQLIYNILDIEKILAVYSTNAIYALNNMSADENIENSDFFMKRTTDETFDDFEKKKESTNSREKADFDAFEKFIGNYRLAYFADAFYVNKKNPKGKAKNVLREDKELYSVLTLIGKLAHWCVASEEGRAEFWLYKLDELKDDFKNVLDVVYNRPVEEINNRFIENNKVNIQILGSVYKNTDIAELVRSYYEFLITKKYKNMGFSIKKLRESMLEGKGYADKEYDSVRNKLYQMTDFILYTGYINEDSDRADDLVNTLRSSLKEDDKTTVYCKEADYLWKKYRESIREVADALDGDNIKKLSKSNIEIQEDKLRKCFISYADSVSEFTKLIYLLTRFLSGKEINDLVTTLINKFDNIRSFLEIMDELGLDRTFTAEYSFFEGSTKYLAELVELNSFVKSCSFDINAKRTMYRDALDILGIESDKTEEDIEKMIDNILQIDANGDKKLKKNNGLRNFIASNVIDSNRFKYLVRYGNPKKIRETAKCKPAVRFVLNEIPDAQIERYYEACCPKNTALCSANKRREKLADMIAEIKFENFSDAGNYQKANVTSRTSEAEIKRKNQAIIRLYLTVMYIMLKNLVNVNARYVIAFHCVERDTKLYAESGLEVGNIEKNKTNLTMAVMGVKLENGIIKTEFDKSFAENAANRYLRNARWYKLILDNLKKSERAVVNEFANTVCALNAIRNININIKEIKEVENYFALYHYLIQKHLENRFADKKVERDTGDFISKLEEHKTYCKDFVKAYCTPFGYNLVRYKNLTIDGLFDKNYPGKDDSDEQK


Each binder was assayed against T1, EsCas13d, nuclease-dead (assay: crRNA (strand 1, pre-loaded); Mg2+; 40 mM Tris-HCl pH 7.5, 150 mM NaCl, 6 mM MgCl2, 1 mM DTT, 0.1% Tween-20, 0.2 mg/ml BSA; 25 C; 10 min per concentration, then washed). Conditions: tags: His6-TwinStrep-SUMO cleaved; N-terminal SNAP kept (SNAP-Surface 488); label: 3' end held by stalled T7 RNA polymerase.

| Binder | Kd [nM] |
| --- | --- |
| target 2 MT 5'PFS CGG 3'PFS AUC (mixed) RNA 1: CACCCGUGCAAAAUUGCAGGGGUCUAAAACCUUCUCCAAAUUGUUUCAUCCU RNA 2: GGGAAUGGAUCCACAUCUACGAAUUCCGGAGGAUGAAACAAUUUGGAGAAGAUCAGAUCGGAAGAGCACACGU | 6.8 ± 1.1 |
| target 2 MT 5'PFS CGG 3'PFS AUA (mixed) RNA 1: CACCCGUGCAAAAUUGCAGGGGUCUAAAACCUUCUCCAAAUUGUUUCAUCCU RNA 2: GGGAAUGGAUCCACAUCUACGAAUUCCGGAGGAUGAAACAAUUUGGAGAAGAUAAGAUCGGAAGAGCACACGU | 4.1 ± 0.5 |
| target 1 C7A,U10C (mixed) RNA 1: CACCCGUGCAAAAAUGCAGGGGUCUAAAACUGAGCGGAUAACCUCUCUAUGG RNA 2: GGGAAUGGAUCCACAUCUACGAAUUCGUACCAUAGAGAGGUCAUACGCUCACCGAGAUCGGAAGAGCACACGU | 13.6 ± 0.7 |
| target 2 MT 5'PFS GUA 3'PFS CUU (mixed) RNA 1: CACCCGUGCAAAAUUGCAGGGGUCUAAAACCUUCUCCAAAUUGUUUCAUCCU RNA 2: GGGAAUGGAUCCACAUCUACGAAUUCGUAAGGAUGAAACAAUUUGGAGAAGCUUAGAUCGGAAGAGCACACGU | 10.2 ± 1 |
| target 2 MT 5'PFS GAA 3'PFS UUU (mixed) RNA 1: CACCCGUGCAAAAUUGCAGGGGUCUAAAACCUUCUCCAAAUUGUUUCAUCCU RNA 2: GGGAAUGGAUCCACAUCUACGAAUUCGAAAGGAUGAAACAAUUUGGAGAAGUUUAGAUCGGAAGAGCACACGU | 24 ± 4 |
| target 2 MT 5'PFS GUA 3'PFS CUA (mixed) RNA 1: CACCCGUGCAAAAUUGCAGGGGUCUAAAACCUUCUCCAAAUUGUUUCAUCCU RNA 2: GGGAAUGGAUCCACAUCUACGAAUUCGUAAGGAUGAAACAAUUUGGAGAAGCUAAGAUCGGAAGAGCACACGU | 6.5 ± 0.6 |
| target 2 MT 5'PFS GUA 3'PFS CUC (mixed) RNA 1: CACCCGUGCAAAAUUGCAGGGGUCUAAAACCUUCUCCAAAUUGUUUCAUCCU RNA 2: GGGAAUGGAUCCACAUCUACGAAUUCGUAAGGAUGAAACAAUUUGGAGAAGCUCAGAUCGGAAGAGCACACGU | 15.5 ± 2.6 |
| target 2 MT 5'PFS GUA 3'PFS CUG (mixed) RNA 1: CACCCGUGCAAAAUUGCAGGGGUCUAAAACCUUCUCCAAAUUGUUUCAUCCU RNA 2: GGGAAUGGAUCCACAUCUACGAAUUCGUAAGGAUGAAACAAUUUGGAGAAGCUGAGAUCGGAAGAGCACACGU | 11.1 ± 1.2 |
| target 2 MT 5'PFS AUU 3'PFS ACC (mixed) RNA 1: CACCCGUGCAAAAUUGCAGGGGUCUAAAACCUUCUCCAAAUUGUUUCAUCCU RNA 2: GGGAAUGGAUCCACAUCUACGAAUUCAUUAGGAUGAAACAAUUUGGAGAAGACCAGAUCGGAAGAGCACACGU | 15.2 ± 3.1 |
| target 2 MT 5'PFS AUU 3'PFS ACA (mixed) RNA 1: CACCCGUGCAAAAUUGCAGGGGUCUAAAACCUUCUCCAAAUUGUUUCAUCCU RNA 2: GGGAAUGGAUCCACAUCUACGAAUUCAUUAGGAUGAAACAAUUUGGAGAAGACAAGAUCGGAAGAGCACACGU | 9.5 ± 2 |
| target 2 MT 5'PFS GAG 3'PFS AAU (mixed) RNA 1: CACCCGUGCAAAAUUGCAGGGGUCUAAAACCUUCUCCAAAUUGUUUCAUCCU RNA 2: GGGAAUGGAUCCACAUCUACGAAUUCGAGAGGAUGAAACAAUUUGGAGAAGAAUAGAUCGGAAGAGCACACGU | 5.6 ± 0.7 |
| target 2 MT 5'PFS AUU 3'PFS ACG (mixed) RNA 1: CACCCGUGCAAAAUUGCAGGGGUCUAAAACCUUCUCCAAAUUGUUUCAUCCU RNA 2: GGGAAUGGAUCCACAUCUACGAAUUCAUUAGGAUGAAACAAUUUGGAGAAGACGAGAUCGGAAGAGCACACGU | 9 ± 1 |
| target 2 MT 5'PFS UGA 3'PFS CAG (mixed) RNA 1: CACCCGUGCAAAAUUGCAGGGGUCUAAAACCUUCUCCAAAUUGUUUCAUCCU RNA 2: GGGAAUGGAUCCACAUCUACGAAUUCUGAAGGAUGAAACAAUUUGGAGAAGCAGAGAUCGGAAGAGCACACGU | 6.6 ± 0.7 |
| target 1 insU 3' of 20,insC 3' of 19 (mixed) RNA 1: CACCCGUGCAAAAAUGCAGGGGUCUAAAACUGAGCGGAUAACCUCUCUAUGG RNA 2: GGGAAUGGAUCCACAUCUACGAAUUCGUACCAUUCAGAGAGGUUAUCCGCUCACCGAGAUCGGAAGAGCACACGU | 50 ± 17 |
| target 2 MT 5'PFS GAC 3'PFS CAG (mixed) RNA 1: CACCCGUGCAAAAUUGCAGGGGUCUAAAACCUUCUCCAAAUUGUUUCAUCCU RNA 2: GGGAAUGGAUCCACAUCUACGAAUUCGACAGGAUGAAACAAUUUGGAGAAGCAGAGAUCGGAAGAGCACACGU | 17 ± 4 |
| target 2 MT 5'PFS GAC 3'PFS CAA (mixed) RNA 1: CACCCGUGCAAAAUUGCAGGGGUCUAAAACCUUCUCCAAAUUGUUUCAUCCU RNA 2: GGGAAUGGAUCCACAUCUACGAAUUCGACAGGAUGAAACAAUUUGGAGAAGCAAAGAUCGGAAGAGCACACGU | 6.2 ± 1.2 |
| target 2 MT 5'PFS GAC 3'PFS CAC (mixed) RNA 1: CACCCGUGCAAAAUUGCAGGGGUCUAAAACCUUCUCCAAAUUGUUUCAUCCU RNA 2: GGGAAUGGAUCCACAUCUACGAAUUCGACAGGAUGAAACAAUUUGGAGAAGCACAGAUCGGAAGAGCACACGU | 12.9 ± 2.4 |
| target 2 MT 5'PFS GAG 3'PFS AAG (mixed) RNA 1: CACCCGUGCAAAAUUGCAGGGGUCUAAAACCUUCUCCAAAUUGUUUCAUCCU RNA 2: GGGAAUGGAUCCACAUCUACGAAUUCGAGAGGAUGAAACAAUUUGGAGAAGAAGAGAUCGGAAGAGCACACGU | 5.6 ± 0.5 |
| target 2 MT 5'PFS GAG 3'PFS AAC (mixed) RNA 1: CACCCGUGCAAAAUUGCAGGGGUCUAAAACCUUCUCCAAAUUGUUUCAUCCU RNA 2: GGGAAUGGAUCCACAUCUACGAAUUCGAGAGGAUGAAACAAUUUGGAGAAGAACAGAUCGGAAGAGCACACGU | 6.1 ± 1 |
| target 2 MT 5'PFS GAG 3'PFS AAA (mixed) RNA 1: CACCCGUGCAAAAUUGCAGGGGUCUAAAACCUUCUCCAAAUUGUUUCAUCCU RNA 2: GGGAAUGGAUCCACAUCUACGAAUUCGAGAGGAUGAAACAAUUUGGAGAAGAAAAGAUCGGAAGAGCACACGU | 4.1 ± 0.6 |
| target 2 MT 5'PFS AUU 3'PFS ACU (mixed) RNA 1: CACCCGUGCAAAAUUGCAGGGGUCUAAAACCUUCUCCAAAUUGUUUCAUCCU RNA 2: GGGAAUGGAUCCACAUCUACGAAUUCAUUAGGAUGAAACAAUUUGGAGAAGACUAGAUCGGAAGAGCACACGU | 10.7 ± 1.3 |
| target 2 MT 5'PFS GAC 3'PFS CAU (mixed) RNA 1: CACCCGUGCAAAAUUGCAGGGGUCUAAAACCUUCUCCAAAUUGUUUCAUCCU RNA 2: GGGAAUGGAUCCACAUCUACGAAUUCGACAGGAUGAAACAAUUUGGAGAAGCAUAGAUCGGAAGAGCACACGU | 7.4 ± 1.2 |
| target 2 MT 5'PFS UUG 3'PFS CCA (mixed) RNA 1: CACCCGUGCAAAAUUGCAGGGGUCUAAAACCUUCUCCAAAUUGUUUCAUCCU RNA 2: GGGAAUGGAUCCACAUCUACGAAUUCUUGAGGAUGAAACAAUUUGGAGAAGCCAAGAUCGGAAGAGCACACGU | 37 ± 10 |
| target 2 MT 5'PFS CGU 3'PFS CCG (mixed) RNA 1: CACCCGUGCAAAAUUGCAGGGGUCUAAAACCUUCUCCAAAUUGUUUCAUCCU RNA 2: GGGAAUGGAUCCACAUCUACGAAUUCCGUAGGAUGAAACAAUUUGGAGAAGCCGAGAUCGGAAGAGCACACGU | ~40 |
| target 1 insC 3' of 22,insC 3' of 5 (mixed) RNA 1: CACCCGUGCAAAAAUGCAGGGGUCUAAAACUGAGCGGAUAACCUCUCUAUGG RNA 2: GGGAAUGGAUCCACAUCUACGAAUUCGUACCCAUAGAGAGGUUAUCCGCCUCACCGAGAUCGGAAGAGCACACGU | 60 ± 30 |
| target 2 MT 5'PFS GCG 3'PFS AAA (mixed) RNA 1: CACCCGUGCAAAAUUGCAGGGGUCUAAAACCUUCUCCAAAUUGUUUCAUCCU RNA 2: GGGAAUGGAUCCACAUCUACGAAUUCGCGAGGAUGAAACAAUUUGGAGAAGAAAAGAUCGGAAGAGCACACGU | 9.9 ± 2.3 |
| target 2 MT 5'PFS GUC 3'PFS UCU (mixed) RNA 1: CACCCGUGCAAAAUUGCAGGGGUCUAAAACCUUCUCCAAAUUGUUUCAUCCU RNA 2: GGGAAUGGAUCCACAUCUACGAAUUCGUCAGGAUGAAACAAUUUGGAGAAGUCUAGAUCGGAAGAGCACACGU | 25.4 ± 3.3 |
| target 2 MT 5'PFS AAG 3'PFS AAA (mixed) RNA 1: CACCCGUGCAAAAUUGCAGGGGUCUAAAACCUUCUCCAAAUUGUUUCAUCCU RNA 2: GGGAAUGGAUCCACAUCUACGAAUUCAAGAGGAUGAAACAAUUUGGAGAAGAAAAGAUCGGAAGAGCACACGU | 3.7 ± 0.7 |

— article PMC10786891, “Massively parallel profiling of RNA-targeting CRISPR-Cas13d”
